In article PMC3261180:

Assays:
[1] = target: Glu90 (UniProt position 91, VVDPGESRILA); test: NMR
[2] = target: Asp12 (UniProt position 13, LKKAQDTGKIV); test: NMR
[3] = target: Glu6 (UniProt position 7, VDFAFELKKAQ); test: NMR
[4] = target: Glu64 (UniProt position 65, PVYEFEGTSVE); test: NMR
[5] = target: Asp87 (UniProt position 88, ALAVVDPGESR); test: NMR
[6] = target: Glu50 (UniProt position 51, IKEDIEYYAKL); test: NMR
[7] = target: Glu62 (UniProt position 63, GIPVYEFEGTS); test: NMR
[8] = target: Asp48 (UniProt position 49, PDIKEDIEYYA); test: NMR
[9] = target: Asp2 (UniProt position 3, ---MVDFAFEL); test: NMR
[10] = target: Asp44 (UniProt position 45, RNAKPDIKEDI); test: NMR
[11] = target: Glu69 (UniProt position 70, EGTSVELGTLL); test: NMR
[12] = target: Glu100 (UniProt position 101, ALGGKE-----); test: NMR
[13] = target: Glu47 (UniProt position 48, KPDIKEDIEYY); test: NMR
[14] = target: Asp3 (position 3, ---GGDGG---); test: potentiometry
[15] = target: Glu3 (position 3, ---GGEGG---); test: potentiometry
[16] = 298 K, 5.4 M guanidine-HCl, not stated for the denatured samples, unfolded (guanidine-denatured)
[17] = 298 K, low ionic strength, 10 mM sodium citrate/phosphate, no added salt stated, folded (native)
[18] = 333 K, 5.4 M guanidine-HCl, not stated for the denatured samples, unfolded (guanidine-denatured)
[19] = 333 K, low ionic strength, 10 mM sodium citrate/phosphate, no added salt stated, folded (native)
[20] = 298 K, 5.4 M guanidine hydrochloride, free peptide in 5.4 M GdnHCl
[21] = 298 K, no added salt (peptide in nano-pure water), free peptide, no denaturant
[22] = 333 K, 5.4 M guanidine hydrochloride, free peptide in 5.4 M GdnHCl
[23] = 333 K, no added salt (peptide in nano-pure water), free peptide, no denaturant

50S ribosomal protein L30e, 5R->K variant (L30e*) (Thermococcus celer; R8K;R21K;R42K;R54K;R76K)
pKa [1, 16]: 4.16±0.02 | pKa [1, 17]: 4.17±0.02 | pKa [1, 18]: 4.02±0.03 | pKa [1, 19]: 4.24±0.02 | pKa [2, 16]: 3.56±0.02 | pKa [2, 17]: 3.69±0.02 | pKa [2, 18]: 3.46±0.02 | pKa [2, 19]: 3.69±0.03 | pKa [3, 16]: 4.17±0.02 | pKa [3, 17]: 2.34±0.03 | pKa [3, 18]: 4.00±0.02 | pKa [3, 19]: 2.38±0.04 | pKa [4, 16]: 4.17±0.02 | pKa [4, 17]: 4.10±0.06 | pKa [4, 18]: 4.00±0.02 | pKa [4, 19]: 4.06±0.07 | pKa [5, 16]: 3.54±0.02 | pKa [5, 17]: 2.50±0.02 | pKa [5, 18]: 3.47±0.02 | pKa [5, 19]: 2.49±0.03 | pKa [6, 16]: 4.16±0.02 | pKa [6, 17]: 5.10±0.07 | pKa [6, 18]: 4.02±0.03 | pKa [6, 19]: 5.00±0.06 | pKa [7, 16]: 4.19±0.02 | pKa [7, 17]: 3.20±0.06 | pKa [7, 18]: 4.03±0.02 | pKa [7, 19]: 3.30±0.06 | pKa [8, 16]: 3.56±0.02 | pKa [8, 17]: 4.14±0.04 | pKa [8, 18]: 3.46±0.02 | pKa [8, 19]: 4.24±0.04 | pKa [9, 16]: 3.62±0.01 | pKa [9, 17]: 3.13±0.04 | pKa [9, 18]: 3.53±0.02 | pKa [9, 19]: 3.09±0.05 | pKa [10, 16]: 3.62±0.01 | pKa [10, 17]: 3.08±0.04 | pKa [10, 18]: 3.52±0.02 | pKa [10, 19]: 2.88±0.04 | pKa [11, 16]: 4.19±0.02 | pKa [11, 17]: 3.79±0.03 | pKa [11, 18]: 4.01±0.03 | pKa [11, 19]: 3.82±0.03 | pKa [12, 16]: 4.19±0.02 | pKa [12, 17]: 4.31±0.03 | pKa [12, 18]: 4.06±0.02 | pKa [12, 19]: 4.38±0.05 | pKa [13, 16]: 4.17±0.02 | pKa [13, 17]: 4.53±0.04 | pKa [13, 18]: 4.00±0.02 | pKa [13, 19]: 4.56±0.04

GGDGG [Model pentapeptide Ac-GGDGG-NH2 (synthetic)]
pKa [14, 20]: 3.70±0.01 | pKa [14, 21]: 3.69±0.03 | pKa [14, 22]: 3.64±0.02 | pKa [14, 23]: 3.61±0.02

GGEGG [Model pentapeptide Ac-GGEGG-NH2 (synthetic)]
pKa [15, 20]: 4.18±0.04 | pKa [15, 21]: 4.17±0.03 | pKa [15, 22]: 4.10±0.02 | pKa [15, 23]: 4.10±0.01
